Test results taken from US20140017249A1.

Molecular target: IL-1 receptor (UniProt P14778)
Assay: cell-based or functional assay

Sequence of UniProt P14778 (P14778 18-569 limits assumed): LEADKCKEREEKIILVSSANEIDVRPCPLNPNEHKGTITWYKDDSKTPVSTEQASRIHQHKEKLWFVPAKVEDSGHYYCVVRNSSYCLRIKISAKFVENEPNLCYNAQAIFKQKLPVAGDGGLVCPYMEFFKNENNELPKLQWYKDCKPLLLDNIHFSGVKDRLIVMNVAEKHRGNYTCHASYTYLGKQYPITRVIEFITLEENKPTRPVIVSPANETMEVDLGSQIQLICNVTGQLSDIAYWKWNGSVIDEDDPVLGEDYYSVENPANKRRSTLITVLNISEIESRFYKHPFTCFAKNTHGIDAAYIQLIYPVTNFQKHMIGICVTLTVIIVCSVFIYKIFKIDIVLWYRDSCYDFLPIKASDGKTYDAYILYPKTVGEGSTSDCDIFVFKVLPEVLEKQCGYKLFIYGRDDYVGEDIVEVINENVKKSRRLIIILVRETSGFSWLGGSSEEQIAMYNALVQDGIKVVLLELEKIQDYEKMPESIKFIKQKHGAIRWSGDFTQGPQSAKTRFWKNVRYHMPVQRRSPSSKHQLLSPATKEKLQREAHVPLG

- IC50 (pM): inhibition of IL-8 released by IL-1β stimulation, human whole blood, 100 pM rhIL-1β: 53.4 pM
Substance: Kineret® (anakinra) (from UniProt P18510 26-177) (ligand)
